Data: patent US20250076311A1 (Chugai, published 2025)

T1: cynomolgus monkey FcγRIIIaS extracellular domain with C-terminal His-tag (cynomolgus monkey, UniProt Q8SPW2 21-206 at identity 1.00))
T1 construct: also called cyno FcgRIIIaS; cynoFcγRIIIaS
T1 chain: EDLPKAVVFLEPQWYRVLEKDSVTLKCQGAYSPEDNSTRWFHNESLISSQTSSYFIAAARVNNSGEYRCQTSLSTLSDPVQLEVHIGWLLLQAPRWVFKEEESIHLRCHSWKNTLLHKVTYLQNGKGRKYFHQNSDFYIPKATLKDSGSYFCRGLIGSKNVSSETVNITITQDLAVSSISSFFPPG

T2: cynomolgus monkey FcγRIIa3 extracellular domain with C-terminal His-tag (cynomolgus monkey)
T2 construct: also called cyno FcgRIIa3; cynoFcγRIIa3; not shown: His-tag added to the C-terminus
T2 chain: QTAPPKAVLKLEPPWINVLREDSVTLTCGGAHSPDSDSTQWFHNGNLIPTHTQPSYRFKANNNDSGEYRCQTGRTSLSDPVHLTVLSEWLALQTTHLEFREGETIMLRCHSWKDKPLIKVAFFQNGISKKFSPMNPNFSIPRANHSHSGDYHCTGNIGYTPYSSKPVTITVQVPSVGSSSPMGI

T3: cynomolgus monkey FcγRIIb extracellular domain with C-terminal His-tag (cynomolgus monkey)
T3 construct: also called cyno FcgRIIb; cynoFcγRIIb; not shown: His-tag added to the C-terminus
T3 chain: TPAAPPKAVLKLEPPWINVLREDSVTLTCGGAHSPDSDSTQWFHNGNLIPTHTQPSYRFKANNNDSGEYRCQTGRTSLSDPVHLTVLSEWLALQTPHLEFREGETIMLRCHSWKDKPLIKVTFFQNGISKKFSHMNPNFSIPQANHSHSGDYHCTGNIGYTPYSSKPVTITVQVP

T4: human FcγRIIaH extracellular domain with C-terminal His-tag (human, UniProt P12318 34-217)
T4 construct: also called human FcgRIIaH; FcγRIIa (type H)
T4 sequence: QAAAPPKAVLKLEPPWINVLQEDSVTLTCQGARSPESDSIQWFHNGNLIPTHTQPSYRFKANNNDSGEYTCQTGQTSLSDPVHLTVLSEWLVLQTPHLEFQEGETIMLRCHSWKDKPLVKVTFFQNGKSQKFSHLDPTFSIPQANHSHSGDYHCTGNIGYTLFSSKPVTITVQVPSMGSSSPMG

T5: human FcγRIIb extracellular domain with C-terminal His-tag (human, UniProt P31994 43-217)
T5 construct: also called human FcgRIIb
T5 sequence: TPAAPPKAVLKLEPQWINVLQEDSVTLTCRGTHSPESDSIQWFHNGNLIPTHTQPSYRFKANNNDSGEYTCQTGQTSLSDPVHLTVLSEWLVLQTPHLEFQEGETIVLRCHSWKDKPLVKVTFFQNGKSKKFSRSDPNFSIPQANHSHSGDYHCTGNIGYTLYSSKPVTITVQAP


Columns and labels:
[1] = molecular target: T1, cynomolgus monkey FcγRIIIaS …; assay: SPR, KD(SG1)/KD(variant)
[2] = molecular target: T2, cynomolgus monkey FcγRIIa3 …; assay: SPR (BIACORE), antibody captured, FcgR analyte
[3] = molecular target: T3, cynomolgus monkey FcγRIIb extracellular …; assay: SPR (BIACORE), antibody captured, FcgR analyte
[4] = molecular target: T6, cynomolgus monkey FcγRIIIaS extracellular domain with C-terminal His-tag (cynomolgus monkey, UniProt A3RFZ7 21-206 (rhesus entry)); assay: SPR (BIACORE), antibody captured, FcgR analyte
T6 construct: also called cyno FcgRIIIaS; cynoFcγRIIIaS; not shown: His-tag added to the C-terminus

[5] = molecular target: T1, cynomolgus monkey FcγRIIIaS …; assay: SPR, KD(parent SG1)/KD(variant)
[6] = molecular target: T4, human FcγRIIaH extracellular domain …; assay: SPR, KD(parent SG1)/KD(variant)
[7] = molecular target: T5, human FcγRIIb extracellular domain with …; assay: SPR, KD(parent SG1)/KD(variant)

| KD fold (SG1 = 1) [1] [fold] | KD fold (SG1 = 1) [5] [fold] | KD fold (SG1 = 1) [6] [fold] | KD fold (SG1 = 1) [7] [fold] | Binder | also measured |
| --- | --- | --- | --- | --- | --- |
| 0.23 |  |  |  | M103205H795-MY536/M103202L889-SK1 (antibody, human IgG1, kappa, name in EU numbering, copies: 2 + 2) heavy: QVTLKESGPVLVKPTETLTLTCTVSGIDLSHDDISWVRQAPGKGLEWVGIISYAGSTYYASWAKGRLTISKDTSKNQVVLTMTNMDPVDTATYYCARGVPAYSHGGDLWGQGTLVTVSSASTKGPSVFPLAPSSKSTSGGTAALGCLVKDYFPEPVTVSWNSGALTSGVHTFPAVLQSSGLYSLSSVVTVPSSSLGTQTYICNVNHKPSNTKVDKKVEPKSCDKTHTCPPCPGPEWLTGPVVFLFPPKPKDTLMISRTPEVTCVVVDVSDEDPEVKFNWYVDGVEVHNAKTKPREEQYNSTYRVVSVLTVLHQDWLNGKEYKCKVSNKALPKPIEKTISKAKGQPREPQVYTLPPSREEMTKNQVSLTCLVKGFYPSDIAVEWESNGQPENNYKTTPPVLDSDGSFFLYSKLTVDKSRWQQGNVFSCSVMHEALHNHYTQKSLSLSP light: DIVMTQSPATLSLSPGERATLSCTSSQSVYHANWLSWFQQKPGQPPKLLIYWASTLAYGVPSRFSGSGSGTDFTLTISSLQPEDAATYYCAGGYGGGRYAFGQGTKVEIKRTVAAPSVFIFPPSDEQLKSGTASVVCLLNNFYPREAKVQWKVDNALQSGNSQESVTEQDSKDSTYSLSSTLTLSKADYEKHKVYACEVTHQGLSSPVTKSFNRGEC |  |
|  |  |  |  | M103205H795-MY212/M103202L889-SK1 (antibody, human IgG1, kappa, name in EU numbering, Fc variant of MS1032LO06-SG1; positions in EU numbering) heavy: QVTLKESGPVLVKPTETLTLTCTVSGIDLSHDDISWVRQAPGKGLEWVGIISYAGSTYYASWAKGRLTISKDTSKNQVVLTMTNMDPVDTATYYCARGVPAYSHGGDLWGQGTLVTVSSASTKGPSVFPLAPSSKSTSGGTAALGCLVKDYFPEPVTVSWNSGALTSGVHTFPAVLQSSGLYSLSSVVTVPSSSLGTQTYICNVNHKPSNTKVDKKVEPKSCDKTHTCPPCPAPELLNGPVVFLFPPKPKDTLMISRTPEVTCVVVDVSDEDPEVKFNWYVDGVEVHNAKTKPREELYNSTYRVVSVLTVLHQDWLNGKEYKCKVSNTALPKPIEKTISKAKGQPREPQVYTLPPSREEMTKNQVSLTCLVKGFYPSDIAVEWESNGQPENNYKTTPPVLDSDGSFFLYSKLTVDKSRWQQGNVFSCSVMHEALHNHYTQKSLSLSP light: DIVMTQSPATLSLSPGERATLSCTSSQSVYHANWLSWFQQKPGQPPKLLIYWASTLAYGVPSRFSGSGSGTDFTLTISSLQPEDAATYYCAGGYGGGRYAFGQGTKVEIKRTVAAPSVFIFPPSDEQLKSGTASVVCLLNNFYPREAKVQWKVDNALQSGNSQESVTEQDSKDSTYSLSSTLTLSKADYEKHKVYACEVTHQGLSSPVTKSFNRGEC | Kd [2]: 2900 nM; Kd [3]: 570 nM; Kd [4]: 2600 nM |
|  | 0.18 | 2.5 |  | MS1032LO19-SG1080 (antibody, name in EU numbering, tied to rows r18/r36 by row order only; also called MS103240H795-SG1080) heavy: QVQLVESGGGLVQPGGSLRLSCAVSGIDLSHDDISWVRQAPGKGLEWVSIISYAGSTYYASWAKGRLTISKDTSKNQVVLTMTNMDPVDTATYYCARGVPAYSHGGDLWGQGTLVTVSSASTKGPSVFPLAPSSKSTSGGTAALGCLVKDYFPEPVTVSWNSGALTSGVHTFPAVLQSSGLYSLSSVVTVPSSSLGTQTYICNVNHKPSNTKVDKKVEPKSCDKTHTCPPCPAPELLNGPSVFLFPPKPKDTLMISRTPEVTCVVVDVSDEDPEVKFNWYVDGVEVHNAKTKPREELYNSTYRVVSVLTVLHRDWLNGKEYKCKVSNTALPKPIEKTISKAKGQRREPQVYTLPPSREEMTKNQVSLTCLVKGFYPSDIAVEWESNGQPENNYKTTPPVLDSDGSFFLYSKLTVDKSRWQQGNVFSCSVMHEALHAHYTRKELSLSP light: DIVMTQSPATLSLSPGERATLSCTTSQSVYHENWLSWFQQKPGQPPKLLIYWASTLAYGVPSRFSGSGSGTDFTLTISSLQPEDAATYYCAGGYGGGRYAFGQGTKVEIKRTVAAPSVFIFPPSDEQLKSGTASVVCLLNNFYPREAKVQWKVDNALQSGNSQESVTEQDSKDSTYSLSSTLTLSKADYEKHKVYACEVTHQGLSSPVTKSFNRGEC |  |
| 0.25 |  |  |  | M103205H795-MY538/M103202L889-SK1 (antibody, human IgG1, kappa, name in EU numbering, copies: 2 + 2) heavy: QVTLKESGPVLVKPTETLTLTCTVSGIDLSHDDISWVRQAPGKGLEWVGIISYAGSTYYASWAKGRLTISKDTSKNQVVLTMTNMDPVDTATYYCARGVPAYSHGGDLWGQGTLVTVSSASTKGPSVFPLAPSSKSTSGGTAALGCLVKDYFPEPVTVSWNSGALTSGVHTFPAVLQSSGLYSLSSVVTVPSSSLGTQTYICNVNHKPSNTKVDKKVEPKSCDKTHTCPPCPGPEWLTGPSVFLFPPKPKDTLMISRTPEVTCVVVDVSDEDPEVKFNWYVDGVEVHNAKTKPREELYNSTYRVVSVLTVLHQDWLNGKEYKCKVSNKALPKPIEKTISKAKGQPREPQVYTLPPSREEMTKNQVSLTCLVKGFYPSDIAVEWESNGQPENNYKTTPPVLDSDGSFFLYSKLTVDKSRWQQGNVFSCSVMHEALHNHYTQKSLSLSP light: DIVMTQSPATLSLSPGERATLSCTSSQSVYHANWLSWFQQKPGQPPKLLIYWASTLAYGVPSRFSGSGSGTDFTLTISSLQPEDAATYYCAGGYGGGRYAFGQGTKVEIKRTVAAPSVFIFPPSDEQLKSGTASVVCLLNNFYPREAKVQWKVDNALQSGNSQESVTEQDSKDSTYSLSSTLTLSKADYEKHKVYACEVTHQGLSSPVTKSFNRGEC |  |
|  | 0.11 | 2.7 | 1 | MS1032LO06-SG1034 (antibody, human IgG1, kappa, name in EU numbering, tied to rows r12/r30 by row order only; also called MS103205H795-SG1034; copies: 2 + 2) heavy: QVTLKESGPVLVKPTETLTLTCTVSGIDLSHDDISWVRQAPGKGLEWVGIISYAGSTYYASWAKGRLTISKDTSKNQVVLTMTNMDPVDTATYYCARGVPAYSHGGDLWGQGTLVTVSSASTKGPSVFPLAPSSKSTSGGTAALGCLVKDYFPEPVTVSWNSGALTSGVHTFPAVLQSSGLYSLSSVVTVPSSSLGTQTYICNVNHKPSNTKVDKKVEPKSCDKTHTCPPCPAPELLTGPSVFLFPPKPKDTLMISRTPEVTCVVVDVSDEDPEVKFNWYVDGVEVHNAKTKPREEQYNSTYRVVSVLTVLHRDWLNGKEYKCKVSNKALPKPIEKTISKAKGQPREPQVYTLPPSREEMTKNQVSLTCLVKGFYPSDIAVEWESNGQPENNYKTTPPVLDSDGSFFLYSKLTVKKSRWQQGNVFSCSVMHEALHAHYTQKSLSLSP light: DIVMTQSPATLSLSPGERATLSCTSSQSVYHANWLSWFQQKPGQPPKLLIYWASTLAYGVPSRFSGSGSGTDFTLTISSLQPEDAATYYCAGGYGGGRYAFGQGTKVEIKRTVAAPSVFIFPPSDEQLKSGTASVVCLLNNFYPREAKVQWKVDNALQSGNSQESVTEQDSKDSTYSLSSTLTLSKADYEKHKVYACEVTHQGLSSPVTKSFNRGEC |  |
|  | 0.06 | 0.5 | 1 | MS1032LO06-SG1033 (antibody, human IgG1, kappa, name in EU numbering, tied to rows r11/r29 by row order only; also called MS103205H795-SG1033; copies: 2 + 2) heavy: QVTLKESGPVLVKPTETLTLTCTVSGIDLSHDDISWVRQAPGKGLEWVGIISYAGSTYYASWAKGRLTISKDTSKNQVVLTMTNMDPVDTATYYCARGVPAYSHGGDLWGQGTLVTVSSASTKGPSVFPLAPSSKSTSGGTAALGCLVKDYFPEPVTVSWNSGALTSGVHTFPAVLQSSGLYSLSSVVTVPSSSLGTQTYICNVNHKPSNTKVDKKVEPKSCDKTHTCPPCPAPELLNGPSVFLFPPKPKDTLMISRTPEVTCVVVDVSDEDPEVKFNWYVDGVEVHNAKTKPREEQYNSTYRVVSVLTVLHQDWLNGKEYKCKVSNKALPKPIEKTISKAKGQPREPQVYTLPPSREEMTKNQVSLTCLVKGFYPSDIAVEWESNGQPENNYKTTPPVLDSDGSFFLYSKLTVDKSRWQQGNVFSCSVMHEALHAHYTQKSLSLSP light: DIVMTQSPATLSLSPGERATLSCTSSQSVYHANWLSWFQQKPGQPPKLLIYWASTLAYGVPSRFSGSGSGTDFTLTISSLQPEDAATYYCAGGYGGGRYAFGQGTKVEIKRTVAAPSVFIFPPSDEQLKSGTASVVCLLNNFYPREAKVQWKVDNALQSGNSQESVTEQDSKDSTYSLSSTLTLSKADYEKHKVYACEVTHQGLSSPVTKSFNRGEC |  |
